{"source": "patent US20150197562A1", "about": "(FRAUNHOFER GESELLSCHAFT ZUR FOERDERUNG DER ANGEWANDTEN …, published 2015)", "binders": {"B1": {"name": "recombinant huMAb-anti-MSP10.2 (antibody, V domains shown)", "VH": "EVQLVESGGDLVKPGGSLRLSCVVSGFRISTSAMSWVRQVPGKGLEWVSDISESGGSKDYADSVRGRFTISRDTSKNTLYLQMNSLGADDTALYYCAKSVGYFDTSGYYRWDYFDSWGQGTLVTVSS", "VL": "EIVLTQSPDTLSLSPGETATLSCRASQTVRRNSLAWYQQKPGQAPRLLIYGASDRATGIPDRFSGSGFGTDFTLTVSGLEPEDFAVYYCQQYGTSPRTFGQGTKLEIK", "notes": "Same heavy chain as huMAb-anti-MSP10.1 with a different kappa light chain; Cloned and expressed like huMAb-anti-MSP10.1 (IgG1m17,1, kappa; N. benthamiana)"}, "B2": {"name": "recombinant huMAb-anti-MSP10.1 (antibody, V domains shown)", "VH": "B1 VH", "VL": "EIVLTQSPDILSLSPGERATLSCRASQALTAKYLAWYQQKPGQVPRLLIYGSSTRATGIPDRFRGSGSGTDFTLTISRLEPADSAVYYCQQYEDSPWTFGQGTKLEIK", "notes": "also called recombinant human anti MSP-10 antibody huMAb-anti-MSP10.1"}}, "key": {"dsRed [1]": {"biological_target": "T1, dsRed", "T1 construct": "also called dsRed (horizontal lines)", "T1 chain": "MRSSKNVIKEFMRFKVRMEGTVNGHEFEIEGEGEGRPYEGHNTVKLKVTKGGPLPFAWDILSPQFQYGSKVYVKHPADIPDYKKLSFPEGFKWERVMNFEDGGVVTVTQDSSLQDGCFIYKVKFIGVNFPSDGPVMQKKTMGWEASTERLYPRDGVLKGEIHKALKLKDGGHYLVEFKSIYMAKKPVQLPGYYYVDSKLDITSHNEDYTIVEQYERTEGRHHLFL", "test": "ELISA, coated antigen, goat anti-human IgG-AP, pNPP, absorbance at 405 nm"}, "dsRed [2]": {"biological_target": "T1, dsRed", "test": "ELISA, coated antigen, goat anti-human IgG-AP, pNPP, absorbance at 405 nm"}}, "note": "Read-outs that look alike come from different tables or passages of the source.", "data": [{"binder": "B1", "values": [{"measurement": "binding result", "setting": "dsRed [1]", "value": "no binding (tested: 100 µg/ml)"}]}, {"binder": "B2", "values": [{"measurement": "binding result", "setting": "dsRed [2]", "value": "no binding (tested: 100 µg/ml)"}]}]}
